Results: US20230312686A1 (Bristol-Myers Squibb, published 2023)

Key:
[1] = target: T1, Recombinant human glypican-3 (aa 1-559), His-tagged, R&D Systems (human, UniProt P51654 25-559); test: SPR, 37 C
T1 construct: also called huGPC3; Hu GPC3-His
Experimental: (§1) For off-rate measurements, single 200 nM adnectin/AdxDC concentrations were injected using identical conditions. One 30s injection of 10 mM glycine pH 1.7 was used to remove bound adnectin and regenerate the GPC3 surfaces between assay cycles.
(§2) Rate constants kₐ (kₒₙ) and kd (koff) were derived from reference-subtracted sensorgrams fit to a 1:1 binding model in Biacore T100 Evaluation Software v2.0.4 (GE Healthcare). The affinity constant, KD was calculated from the ratio of rate constants kd/kₐ.

[2] = target: T2, Recombinant murine glypican-3 (aa 25-557), R&D Systems (murine, UniProt Q8CFZ4 25-557); test: SPR, 37 C
T2 construct: also called muGPC3; Mu GPC3-His
Experimental: as §1, §2

[3] = target: T3, Human glypican-3 on cells (Huh7, Hep3B, H446, Hep3B xenograft tissue) (human, UniProt P51654 25-554); test: cell-based or functional assay
[4] = target: T3, Human glypican-3 on cells (Huh7, Hep3B, …); test: flow cytometry on Huh7 cells, unconjugated protein; Huh7 cells; unconjugated protein
Experimental: The binding of DG variants to huGPC3 in DG GPC3 AdxDCs mutants were evaluated by flow cytometry for binding to Huh7 carcinoma cells grown in DMEM media with 10% FBS. Cells were harvested using Versene, an EDTA cell dissociation solution from Lonza, Cat. #17-711E. Tumor cells (1E5 cells/reaction) were suspended in FACS buffer (PBS, 1% BSA, 0.05% Na Azide) and mixed with a serial dilution of AdxDC for one hour on ice. Cells were washed three times with FACS buffer, and bound AdxDC was detected with an in house anti-scaffold monoclonal Ab and PE-conjugated Antibody from (RnD Systems), cat #NL007, and read on a flow cytometer.

[5] = target: T3, Human glypican-3 on cells (Huh7, Hep3B, …); test: flow cytometry on Hep3B cells, His Tag PE antibody
Experimental: GPC3 AdxDC were evaluated by flow cytometry for binding to human Hep3B hepatocellular carcinoma cells grown in MEM with 10% FBS, and H446 small cell lung carcinoma cells grown in RPMI with 10% FBS. Cells were harvested using Cellstripper, a non-enzymatic cell dissociation solution from Mediatch (Corning: Manassas, VA 20109), Cat. #25-056-CL. Tumor cells (25,000/reaction) were suspended in FACS buffer (PBS+5% FBS+0.01% NaN₃) and mixed with a serial dilution of AdxDC for 1 hour on ice. Cells were washed three times with FACS buffer, and bound AdxDC was detected with His Tag PE-conjugated Antibody from R&D System, cat #IC050P, and read on a flow cytometer.

[6] = target: T3, Human glypican-3 on cells (Huh7, Hep3B, …); test: cell-based or functional assay; remark: listed apart in the source
[7] = target: T1, Recombinant human glypican-3 (aa …); test: SPR KD, 37 C, Biacore T100
Experimental: as §1, §2

[8] = target: T1, Recombinant human glypican-3 (aa …); test: SPR
[9] = target: T3, Human glypican-3 on cells (Huh7, Hep3B, …); test: staining of Hep3B xenograft tissue
[10] = target: T3, Human glypican-3 on cells (Huh7, Hep3B, …); test: flow cytometry on Huh7 cells, alkylated Adnectin
[11] = target: T1, Recombinant human glypican-3 (aa …); test: SPR, Biacore T100, 37 C, GPC3 immobilised, DAR1 AdxDC
Experimental: as §1, §2

[12] = target: T2, Recombinant murine glypican-3 (aa …); test: as above
Experimental: as §1, §2

[13] = target: T1, Recombinant human glypican-3 (aa …); test: SPR, Biacore T100, GPC3-His immobilised, 1:1 fit
Experimental: (§3) The binding affinities of the alkylated GPC3 DG mutant adnectins for human and murine GPC3 were further evaluated by Biacore T100 using HBS-P+ running buffer with direct immobilization of human and mouse GPC3 proteins [Hu (Fc 2,3) and Mu (Fc 4) GPC3-His (R&D Systems)] with a 200-1.56 nM series injected for 180s association, 600s dissociation.

[14] = target: T2, Recombinant murine glypican-3 (aa …); test: SPR, Biacore T100, GPC3-His immobilised, 1:1 fit
Experimental: as §3

[15] = target: T1, Recombinant human glypican-3 (aa …); test: SPR, as in the previous Examples
Experimental: as §1, §2
(§4) FITC Labeling: ADX_6077_F02 and non-binding control Adnectin were reduced with DTT or TCEP followed by G25 gel filtration chromatography or dialysis. Excess Fluorescein-5-maleimide reagent (Thermo Scientific) was then added and the mixture incubated at room temperature for approximately 2 hours followed by G25 gel filtration chromatography or extensive dialysis (3-4 buffer changes). The resulting degree of labeling was measured by absorbance following the manufacturer's instructions and/or by mass spectrometry. The binding affinities of FITC-labeled and PEGylated […] for human and murine GPC3 was evaluated as described in the previous Examples, and the results are summarized in Table 13.

[16] = target: T2, Recombinant murine glypican-3 (aa …); test: SPR, as in the previous Examples
Experimental: as §1, §2, §4

T2 sequence (Q8CFZ4 25-557 limits assumed, form in doubt): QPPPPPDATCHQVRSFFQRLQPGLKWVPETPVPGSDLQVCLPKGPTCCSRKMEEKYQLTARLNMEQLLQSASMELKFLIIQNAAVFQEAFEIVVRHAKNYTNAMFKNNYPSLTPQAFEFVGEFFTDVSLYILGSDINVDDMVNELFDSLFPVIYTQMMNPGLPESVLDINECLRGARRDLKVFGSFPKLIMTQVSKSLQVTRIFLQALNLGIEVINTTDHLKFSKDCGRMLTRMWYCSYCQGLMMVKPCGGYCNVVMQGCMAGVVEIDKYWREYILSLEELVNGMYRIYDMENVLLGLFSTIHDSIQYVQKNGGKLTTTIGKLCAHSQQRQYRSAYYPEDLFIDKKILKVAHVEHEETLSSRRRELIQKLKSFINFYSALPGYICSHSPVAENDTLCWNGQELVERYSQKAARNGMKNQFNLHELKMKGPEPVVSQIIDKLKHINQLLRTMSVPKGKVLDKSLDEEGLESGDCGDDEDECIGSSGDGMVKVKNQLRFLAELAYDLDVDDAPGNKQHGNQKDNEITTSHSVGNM
T1 sequence (P51654 other isoform, or with tags, fused parts or gaps): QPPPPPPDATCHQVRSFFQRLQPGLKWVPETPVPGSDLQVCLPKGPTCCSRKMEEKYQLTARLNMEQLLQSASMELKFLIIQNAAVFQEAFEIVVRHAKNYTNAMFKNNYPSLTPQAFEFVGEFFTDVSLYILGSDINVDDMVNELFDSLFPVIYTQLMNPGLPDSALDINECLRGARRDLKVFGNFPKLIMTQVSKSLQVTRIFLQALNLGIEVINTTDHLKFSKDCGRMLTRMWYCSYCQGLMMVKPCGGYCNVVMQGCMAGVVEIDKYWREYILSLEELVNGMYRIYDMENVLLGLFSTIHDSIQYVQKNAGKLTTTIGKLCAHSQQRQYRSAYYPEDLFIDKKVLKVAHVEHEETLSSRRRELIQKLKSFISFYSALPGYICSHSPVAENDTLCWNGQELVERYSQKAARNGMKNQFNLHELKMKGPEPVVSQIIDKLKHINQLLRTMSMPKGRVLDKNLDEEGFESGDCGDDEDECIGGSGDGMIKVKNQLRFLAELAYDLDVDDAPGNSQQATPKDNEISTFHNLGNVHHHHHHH
T3 sequence (P51654 25-554 limits assumed): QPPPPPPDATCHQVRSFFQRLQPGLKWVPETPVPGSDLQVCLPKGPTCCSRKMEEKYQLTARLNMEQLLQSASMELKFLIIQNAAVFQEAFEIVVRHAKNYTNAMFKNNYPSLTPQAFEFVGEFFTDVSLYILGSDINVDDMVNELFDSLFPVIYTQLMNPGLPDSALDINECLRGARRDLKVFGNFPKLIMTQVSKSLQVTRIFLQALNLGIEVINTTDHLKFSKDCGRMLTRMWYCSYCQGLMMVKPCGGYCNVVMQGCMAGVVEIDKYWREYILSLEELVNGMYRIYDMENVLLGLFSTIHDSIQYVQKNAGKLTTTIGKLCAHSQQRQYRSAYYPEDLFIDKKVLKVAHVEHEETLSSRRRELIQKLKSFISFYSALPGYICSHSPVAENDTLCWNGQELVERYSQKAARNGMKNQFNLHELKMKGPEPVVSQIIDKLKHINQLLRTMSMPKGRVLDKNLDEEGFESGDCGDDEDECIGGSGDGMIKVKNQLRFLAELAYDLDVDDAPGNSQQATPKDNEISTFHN

B1: GPC3_AdxDC DA variant-DAR1 (designed binder)
chain: GVSDVPRDLEVVAATPTSLLISWSDDYHAHRYYRITYGETGGNSPVQEFTVPGEHVTATISGLKPGVDYTITVYAVTYDAEKAATDWSISINYRTPC
modifications: tubulysin analog-linker conjugated to the C-terminal cysteine (DAR1)
notes: also called DA variant AdxDC DAR1; GPC3_AdxDC (DA) DAR1
Kd [1]: 25 nM | koff [1]: 0.0021 s⁻¹ | Kd [2]: 23 nM | koff [2]: 0.00095 s⁻¹ | Cell-killing IC50 (Huh7) [3]: 0.2 nM

B2: DA variant of ADX_6077_F02, unconjugated protein (designed binder)
chain: GVSDVPRDLEVVAATPTSLLISWSDDYHAHRYYRITYGETGGNSPVQEFTVPGEHVTATISGLKPGVDYTITVYAVTYDAEKAATDWSISINYRTPC
notes: also called DA variant, unconjugated
EC50 [4]: 2.2 nM

B3: ADX_6093_A01-961(DAR2) (designed binder)
10Fn3 domain: MGVSDVPRDLEVVAATPTSLLISWDAPAVTVRYYRITYGETGGNSPVQEFTVPGSKSTATISGLKPGVDYTITVYAVTGRGESPASSKPISINYRTPCPPPPPCHHHHHH
modifications: the two C-terminal cysteines each carry the tubulysin analog-linker of formula (IV) (Drug/linker (2x), DAR2)
notes: It is the DAR2 counterpart of m12
binding result [5]: no binding (tested: about 30 nM)

B4: ADX_6093_A01 DAR1 AdxDC (non-binding control) (designed binder)
chain: MGVSDVPRDLEVVAATPTSLLISWDAPAVTVRYYRITYGETGGNSPVQEFTVPGSKSTATISGLKPGVDYTITVYAVTGRGESPASSKPISINYRTPCHHHHHH
modifications: tubulysin analog-linker (formula IV) on the C-terminal cysteine (DAR1)
notes: Control 10Fn3 with RGE in place of RGD; also called RGE AdxDC
AdxDC cell-killing IC50 [6]: > 25 nM | binding result [5]: no binding (tested: about 30 nM) | binding result [7]: no binding

B5: RGE-FITC (designed binder)
chain: MGVSDVPRDLEVVAATPTSLLISWDAPAVTVRYYRITYGETGGNSPVQEFTVPGSKSTATISGLKPGVDYTITVYAVTGRGESPASSKPISINYRTPCHHHHHH
modifications: fluorescein-5-maleimide on the C-terminal cysteine
binding result [8]: no binding | binding result [9]: no binding (tested: 0.2 µg/ml)

B6: ADX_6093_A01 alkylated (non-binding control) (designed binder)
chain: MGVSDVPRDLEVVAATPTSLLISWDAPAVTVRYYRITYGETGGNSPVQEFTVPGSKSTATISGLKPGVDYTITVYAVTGRGESPASSKPISINYRTPCHHHHHH
modifications: C-terminal cysteine alkylated with iodoacetamide
EC50 [10]: > 200 nM

B7: ADX_6077_F02 DAR1 AdxDC (GPC3-tubulysin Adnectin drug conjugate) (designed binder)
chain: MGVSDVPRDLEVVAATPTSLLISWSDDYHAHRYYRITYGETGGNSPVQEFTVPGEHVTATISGLKPGVDYTITVYAVTYDGEKAATDWSISINYRTPCHHHHHH
modifications: tubulysin analog-linker (formula IV) conjugated through its maleimide to the C-terminal cysteine (DAR1)
notes: also called GPC3 AdxDC DAR1; ADX_6077_F02-961
AdxDC cell-killing IC50 [6]: 0.2 nM | Kd [11]: 12 nM | koff [11]: 0.00098 s⁻¹ | Kd [12]: 11 nM | koff [12]: 0.00077 s⁻¹

B8: ADX_6077_F02 alkylated (designed binder)
chain: MGVSDVPRDLEVVAATPTSLLISWSDDYHAHRYYRITYGETGGNSPVQEFTVPGEHVTATISGLKPGVDYTITVYAVTYDGEKAATDWSISINYRTPCHHHHHH
modifications: C-terminal cysteine (of PC) alkylated with iodoacetamide
notes: also called alkylated (capped) Adnectin; alkylated parent
Fold affinity (KD) difference vs alkylated parent [13]: 1 fold | Kd [13]: 5.6 nM | koff [13]: 0.000534 s⁻¹ | kon [13]: 95300 M⁻¹ s⁻¹ | Fold affinity (KD) difference vs alkylated parent [14]: 1 fold | Kd [14]: 3.8 nM | koff [14]: 0.00049 s⁻¹ | kon [14]: 130000 M⁻¹ s⁻¹ | EC50 [10]: 5 nM | Kd [15]: 5.88 nM | koff [15]: 0.000524 s⁻¹ | kon [15]: 89000 M⁻¹ s⁻¹ | Kd [16]: 3.69 nM | koff [16]: 0.000453 s⁻¹ | kon [16]: 123000 M⁻¹ s⁻¹
